Publication PMC7369618 (Redox Biology, 2020)

Target: EGFP-PKM2 (UniProt P14618 1-531)
Assay: MST

Chain of EGFP-PKM2 (P14618 whole entry): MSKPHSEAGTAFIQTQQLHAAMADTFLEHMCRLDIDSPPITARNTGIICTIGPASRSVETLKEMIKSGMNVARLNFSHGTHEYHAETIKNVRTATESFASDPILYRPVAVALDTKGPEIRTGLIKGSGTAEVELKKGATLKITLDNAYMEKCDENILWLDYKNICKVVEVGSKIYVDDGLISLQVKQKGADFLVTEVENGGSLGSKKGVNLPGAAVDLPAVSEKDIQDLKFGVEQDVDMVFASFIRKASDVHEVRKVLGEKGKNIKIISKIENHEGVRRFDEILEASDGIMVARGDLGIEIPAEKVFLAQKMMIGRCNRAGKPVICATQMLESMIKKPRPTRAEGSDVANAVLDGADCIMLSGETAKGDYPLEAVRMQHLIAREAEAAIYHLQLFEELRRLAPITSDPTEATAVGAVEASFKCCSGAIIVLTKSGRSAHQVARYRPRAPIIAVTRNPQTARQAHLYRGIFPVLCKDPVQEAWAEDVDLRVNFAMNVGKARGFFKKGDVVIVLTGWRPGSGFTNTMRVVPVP

B1: Annexin A5 (sc-4252, Santa Cruz Biotechnology) (natural protein)
chain: MAQVLRGTVTDFPGFDERADAETLRKAMKGLGTDEESILTLLTSRSNAQRQEISAAFKTLFGRDLLDDLKSELTGKFEKLIVALMKPSRLYDAYELKHALKGAGTNEKVLTEIIASRTPEELRAIKQVYEEEYGSSLEDDVVGDTSGYYQRMLVVLLQANRDPDAGIDEAQVEQDAQALFQAGELKWGTDEEKFITIFGTRSVSHLRKVFDKYMTISGFQIEETIDRETSGNLEQLLLAVVKSIRSIPAYLAETLYYAMKGAGTDDHTLIRVMVSRSEIDLFNIRKEFRKNFATSLYSMIKGDTSGDYKKALLLLCGEDD
Kd: 0.001 pM
